The values that follow are results of earlier work, collected in PMC12990809.

Among the targets are RALY (Homo sapiens) (UniProt Q9UKM9); PABPC1 (Homo sapiens) (UniProt P11940); PABPC3 (Homo sapiens) (UniProt Q9H361).
Assay in all cases: pulldown
What all share (conditions): 20 nM protein, 1.5 uM RNA pool; 20 mM HEPES pH 7.8, 70 mM KCl, 10 mM NaCl, 10% glycerol, 2 mM DTT, 0.1 ug/uL BSA; 30 min, 4 C (protocol of this paper; not …); cited from earlier work

For data set [1], the target named is T1, papi (Drosophila melanogaster) (UniProt Q9VQ91).
T1 sequence: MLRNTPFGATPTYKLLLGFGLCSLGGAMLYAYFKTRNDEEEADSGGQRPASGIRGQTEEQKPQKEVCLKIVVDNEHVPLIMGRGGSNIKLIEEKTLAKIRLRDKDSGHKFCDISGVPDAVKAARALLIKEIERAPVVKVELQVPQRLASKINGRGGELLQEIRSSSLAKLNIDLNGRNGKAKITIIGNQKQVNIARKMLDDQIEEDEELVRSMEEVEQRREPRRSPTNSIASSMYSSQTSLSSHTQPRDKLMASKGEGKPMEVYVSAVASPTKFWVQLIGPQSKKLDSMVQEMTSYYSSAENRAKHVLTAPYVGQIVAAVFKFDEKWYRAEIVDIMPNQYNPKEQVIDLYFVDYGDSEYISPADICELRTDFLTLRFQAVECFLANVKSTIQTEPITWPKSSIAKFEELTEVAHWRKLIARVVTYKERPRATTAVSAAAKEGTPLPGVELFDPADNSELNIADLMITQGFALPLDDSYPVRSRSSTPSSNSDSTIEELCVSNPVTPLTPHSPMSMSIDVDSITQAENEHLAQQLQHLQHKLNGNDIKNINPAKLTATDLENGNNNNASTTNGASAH

A further data set concerns the target T2, RBM42 (Homo sapiens) (UniProt Q9BTD8).
T2 sequence: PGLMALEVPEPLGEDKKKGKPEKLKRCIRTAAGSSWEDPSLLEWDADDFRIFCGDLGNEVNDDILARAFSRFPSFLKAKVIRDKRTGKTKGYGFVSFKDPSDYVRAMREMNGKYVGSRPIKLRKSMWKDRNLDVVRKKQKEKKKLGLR

For data set [2], the target named is mub (Drosophila melanogaster) (UniProt M9NGB9).
Sequence of mub (Drosophila melanogaster) (M9NGB9 entry or part of it): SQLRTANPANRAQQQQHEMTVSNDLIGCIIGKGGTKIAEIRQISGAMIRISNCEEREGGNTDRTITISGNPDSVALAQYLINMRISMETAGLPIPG
Data set [3] has as its target T3, snf (Drosophila melanogaster) (UniProt P43332).
T3 sequence: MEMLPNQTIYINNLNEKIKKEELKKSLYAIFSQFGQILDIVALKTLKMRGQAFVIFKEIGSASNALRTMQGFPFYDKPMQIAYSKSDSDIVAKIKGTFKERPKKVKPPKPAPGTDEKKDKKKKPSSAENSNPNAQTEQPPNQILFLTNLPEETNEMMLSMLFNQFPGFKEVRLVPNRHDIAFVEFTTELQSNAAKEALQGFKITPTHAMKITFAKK

For data set [4], the target named is T4, rin (Drosophila melanogaster) (UniProt A0ACM8PZ16).
T4 sequence: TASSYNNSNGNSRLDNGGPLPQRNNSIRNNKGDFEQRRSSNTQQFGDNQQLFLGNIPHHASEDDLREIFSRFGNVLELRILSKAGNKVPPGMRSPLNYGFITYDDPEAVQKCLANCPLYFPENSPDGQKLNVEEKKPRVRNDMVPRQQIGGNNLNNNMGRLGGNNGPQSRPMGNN

For another data set, the target named is T5, CPEB2 (Homo sapiens) (UniProt Q7Z5Q1).
T5 sequence: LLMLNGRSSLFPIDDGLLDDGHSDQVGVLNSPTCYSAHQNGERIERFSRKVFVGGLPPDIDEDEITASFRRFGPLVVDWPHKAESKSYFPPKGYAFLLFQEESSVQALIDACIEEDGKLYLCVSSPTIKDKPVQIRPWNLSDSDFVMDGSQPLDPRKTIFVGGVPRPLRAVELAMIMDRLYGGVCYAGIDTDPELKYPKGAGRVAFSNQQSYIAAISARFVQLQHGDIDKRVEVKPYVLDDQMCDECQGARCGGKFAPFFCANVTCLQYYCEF

The target in data set [5] is pAbp (Drosophila melanogaster) (UniProt P21187).
Sequence of pAbp (Drosophila melanogaster) (P21187 1-408): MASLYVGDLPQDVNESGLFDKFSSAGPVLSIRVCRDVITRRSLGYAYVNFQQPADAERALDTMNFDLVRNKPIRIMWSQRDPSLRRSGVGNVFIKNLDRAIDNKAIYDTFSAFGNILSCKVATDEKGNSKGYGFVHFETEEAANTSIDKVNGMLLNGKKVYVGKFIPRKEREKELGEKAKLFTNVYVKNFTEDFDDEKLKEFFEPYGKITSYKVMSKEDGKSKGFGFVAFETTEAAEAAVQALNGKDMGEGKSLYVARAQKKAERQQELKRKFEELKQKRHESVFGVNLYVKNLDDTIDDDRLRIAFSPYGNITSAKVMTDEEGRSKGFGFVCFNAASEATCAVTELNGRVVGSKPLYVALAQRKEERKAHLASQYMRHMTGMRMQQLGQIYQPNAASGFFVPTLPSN
The target in data set [6] is T6, B52 (Drosophila melanogaster) (UniProt P26686).
T6 sequence: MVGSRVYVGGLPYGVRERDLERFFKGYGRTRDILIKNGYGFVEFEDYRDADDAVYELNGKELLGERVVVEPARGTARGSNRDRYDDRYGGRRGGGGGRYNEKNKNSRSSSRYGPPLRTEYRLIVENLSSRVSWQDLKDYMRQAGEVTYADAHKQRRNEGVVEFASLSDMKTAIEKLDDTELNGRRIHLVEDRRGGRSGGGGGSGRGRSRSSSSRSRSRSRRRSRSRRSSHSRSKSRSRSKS

A further data set deals with T7, ESRP2 (Homo sapiens) (UniProt Q9H6T0).
T7 sequence: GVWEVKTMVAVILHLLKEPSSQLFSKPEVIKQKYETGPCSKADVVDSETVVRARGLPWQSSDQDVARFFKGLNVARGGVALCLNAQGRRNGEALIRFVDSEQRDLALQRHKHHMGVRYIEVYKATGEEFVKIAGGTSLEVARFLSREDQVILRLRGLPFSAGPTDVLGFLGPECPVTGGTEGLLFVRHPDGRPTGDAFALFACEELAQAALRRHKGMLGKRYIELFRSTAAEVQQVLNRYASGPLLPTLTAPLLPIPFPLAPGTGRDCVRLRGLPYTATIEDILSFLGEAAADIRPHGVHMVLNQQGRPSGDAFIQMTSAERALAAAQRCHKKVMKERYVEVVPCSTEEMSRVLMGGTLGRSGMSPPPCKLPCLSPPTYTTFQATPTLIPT

In data set [7] the target is T8, CG5213 (Drosophila melanogaster) (UniProt Q7JY27).
T8 sequence: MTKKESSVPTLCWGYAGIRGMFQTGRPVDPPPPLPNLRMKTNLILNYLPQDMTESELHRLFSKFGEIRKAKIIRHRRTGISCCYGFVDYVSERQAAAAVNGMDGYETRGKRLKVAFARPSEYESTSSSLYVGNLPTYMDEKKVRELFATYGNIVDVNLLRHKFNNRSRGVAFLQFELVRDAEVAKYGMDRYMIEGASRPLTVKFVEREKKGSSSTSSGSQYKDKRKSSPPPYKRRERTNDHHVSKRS

In data set [8] the target is T9, qkr58E-1 (Drosophila melanogaster) (UniProt Q7JVR3).
T9 sequence: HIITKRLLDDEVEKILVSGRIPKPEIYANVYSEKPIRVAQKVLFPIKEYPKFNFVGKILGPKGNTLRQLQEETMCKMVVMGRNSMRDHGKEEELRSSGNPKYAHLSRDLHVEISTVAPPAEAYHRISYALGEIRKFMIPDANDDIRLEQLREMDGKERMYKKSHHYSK

The next data set deals with T10, CNOT4 (Homo sapiens) (UniProt O95628).
T10 sequence: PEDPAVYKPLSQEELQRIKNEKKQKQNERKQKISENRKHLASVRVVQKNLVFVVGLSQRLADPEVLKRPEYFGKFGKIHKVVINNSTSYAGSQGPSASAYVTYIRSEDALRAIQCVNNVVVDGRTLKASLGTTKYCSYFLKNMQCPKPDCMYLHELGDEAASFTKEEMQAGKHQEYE

For a further data set, the target named is T11, A1CF (Homo sapiens) (UniProt Q9NQ94).
T11 sequence: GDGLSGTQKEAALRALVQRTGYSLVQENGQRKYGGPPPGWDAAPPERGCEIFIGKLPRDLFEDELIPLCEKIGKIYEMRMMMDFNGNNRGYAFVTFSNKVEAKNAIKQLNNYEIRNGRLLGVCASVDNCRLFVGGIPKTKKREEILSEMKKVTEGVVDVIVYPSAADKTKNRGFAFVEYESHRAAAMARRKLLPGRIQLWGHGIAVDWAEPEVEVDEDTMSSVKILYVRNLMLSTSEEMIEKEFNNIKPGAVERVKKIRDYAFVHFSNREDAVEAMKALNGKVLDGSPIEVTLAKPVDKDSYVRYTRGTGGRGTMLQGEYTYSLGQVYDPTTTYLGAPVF

The next data set deals with T12, RBMS1 (Homo sapiens) (UniProt P29558).
T12 sequence: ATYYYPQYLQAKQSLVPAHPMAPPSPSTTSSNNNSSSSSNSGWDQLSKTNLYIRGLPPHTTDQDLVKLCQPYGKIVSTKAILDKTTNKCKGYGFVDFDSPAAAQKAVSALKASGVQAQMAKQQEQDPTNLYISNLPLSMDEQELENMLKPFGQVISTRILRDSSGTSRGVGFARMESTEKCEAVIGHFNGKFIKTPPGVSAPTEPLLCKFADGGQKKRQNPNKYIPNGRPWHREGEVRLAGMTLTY

For another data set, the target named is T13, PABPN1 (Homo sapiens) (UniProt Q86U42).
T13 sequence: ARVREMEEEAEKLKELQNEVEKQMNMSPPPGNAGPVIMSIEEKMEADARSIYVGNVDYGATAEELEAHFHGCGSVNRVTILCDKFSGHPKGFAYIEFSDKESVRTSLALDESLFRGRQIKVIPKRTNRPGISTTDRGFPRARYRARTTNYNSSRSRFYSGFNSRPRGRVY

The target in data set [9] is T14, CG2931 (Drosophila melanogaster) (UniProt Q7JZA8).
T14 sequence: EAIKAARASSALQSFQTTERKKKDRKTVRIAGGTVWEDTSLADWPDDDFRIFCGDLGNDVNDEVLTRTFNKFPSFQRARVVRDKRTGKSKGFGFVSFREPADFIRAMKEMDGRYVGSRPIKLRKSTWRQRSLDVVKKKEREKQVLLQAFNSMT

Data set [10] addresses T15, CG7804 (Drosophila melanogaster) (UniProt Q7JW23).
T15 sequence: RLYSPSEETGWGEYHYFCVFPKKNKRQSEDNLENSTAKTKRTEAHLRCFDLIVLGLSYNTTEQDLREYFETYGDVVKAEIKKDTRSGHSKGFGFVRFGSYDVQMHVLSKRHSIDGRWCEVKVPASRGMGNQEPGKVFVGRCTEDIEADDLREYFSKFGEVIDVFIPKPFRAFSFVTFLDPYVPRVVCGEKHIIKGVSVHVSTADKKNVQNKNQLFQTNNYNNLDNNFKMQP

The target of the next data set is T16, CPEB4 (Homo sapiens) (UniProt Q17RY0).
T16 sequence: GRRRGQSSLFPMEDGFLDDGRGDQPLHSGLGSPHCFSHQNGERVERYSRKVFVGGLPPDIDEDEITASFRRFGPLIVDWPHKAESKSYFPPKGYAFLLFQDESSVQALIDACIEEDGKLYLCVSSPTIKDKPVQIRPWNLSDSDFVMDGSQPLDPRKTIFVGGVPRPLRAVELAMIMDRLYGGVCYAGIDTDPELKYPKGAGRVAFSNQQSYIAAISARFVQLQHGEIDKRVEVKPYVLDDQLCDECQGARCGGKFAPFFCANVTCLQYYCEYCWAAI

Sequence of RALY (Homo sapiens) (Q9UKM9 1-136): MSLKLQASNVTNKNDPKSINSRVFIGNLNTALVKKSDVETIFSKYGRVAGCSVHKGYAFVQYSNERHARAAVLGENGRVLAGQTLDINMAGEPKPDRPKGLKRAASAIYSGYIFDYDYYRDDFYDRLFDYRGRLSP
Sequence of PABPC1 (Homo sapiens) (P11940 1-414): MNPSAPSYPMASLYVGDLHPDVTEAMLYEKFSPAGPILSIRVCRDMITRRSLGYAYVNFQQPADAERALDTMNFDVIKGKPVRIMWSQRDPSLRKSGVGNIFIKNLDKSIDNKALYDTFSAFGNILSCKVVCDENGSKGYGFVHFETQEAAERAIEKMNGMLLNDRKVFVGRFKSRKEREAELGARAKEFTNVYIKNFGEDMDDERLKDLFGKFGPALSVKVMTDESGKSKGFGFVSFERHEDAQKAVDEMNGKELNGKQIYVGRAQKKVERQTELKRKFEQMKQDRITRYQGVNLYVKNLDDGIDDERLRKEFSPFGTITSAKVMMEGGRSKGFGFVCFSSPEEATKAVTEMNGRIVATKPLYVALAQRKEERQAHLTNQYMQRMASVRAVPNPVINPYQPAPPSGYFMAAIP
Sequence of PABPC3 (Homo sapiens) (Q9H361 1-414): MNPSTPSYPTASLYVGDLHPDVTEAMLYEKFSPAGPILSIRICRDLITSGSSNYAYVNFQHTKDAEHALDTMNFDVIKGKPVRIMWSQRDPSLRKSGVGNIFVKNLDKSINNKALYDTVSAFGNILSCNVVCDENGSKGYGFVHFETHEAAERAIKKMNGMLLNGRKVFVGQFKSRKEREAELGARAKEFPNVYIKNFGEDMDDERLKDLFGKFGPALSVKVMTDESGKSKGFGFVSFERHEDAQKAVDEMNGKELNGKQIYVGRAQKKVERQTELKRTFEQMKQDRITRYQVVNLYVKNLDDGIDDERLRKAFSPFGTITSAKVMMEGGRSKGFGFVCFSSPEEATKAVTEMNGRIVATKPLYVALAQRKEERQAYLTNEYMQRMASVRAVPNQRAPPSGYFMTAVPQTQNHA

Consider UNUGUGU [RNAcompete motif RNCMPT00011], for which, in [1], the binding signal (z-score (mean of top ten 7-mers)) is 17.7.

As for AACUANG [RNAcompete motif RNCMPT00151], in the data set with RBM42 (Homo sapiens), the binding signal (z-score (mean of top ten 7-mers)) was 11.2.

Regarding AACCCU [RNAcompete motif RNCMPT00137], in [2], the binding signal (z-score (mean of top ten 7-mers)) was 10.1.

Take UUGCACA [RNAcompete motif RNCMPT00145]: in [3], the binding signal (z-score (mean of top ten 7-mers)) is 14. For UUUUUU [RNAcompete motif RNCMPT00159], the binding signal (z-score (mean of top ten 7-mers)) with RALY (Homo sapiens) is 16.1. Take GGGUGGG [RNAcompete motif RNCMPT00138]: in data set [4], the binding signal (z-score (mean of top ten 7-mers)) is 9.16.

On to CCUUUUU [RNAcompete motif RNCMPT00012], for which, in the data set with CPEB2 (Homo sapiens), the binding signal (z-score (mean of top ten 7-mers)) was 10.8. Consider GAAAA [RNAcompete motif RNCMPT00139], for which the binding signal (z-score (mean of top ten 7-mers)) in data set [5] was 13.

As for GGAGGGG [RNAcompete motif RNCMPT00134], in [6], the binding signal (z-score (mean of top ten 7-mers)) was 7.73.

For GAAAAA [RNAcompete motif RNCMPT00155], in the data set with PABPC1 (Homo sapiens), the binding signal (z-score (mean of top ten 7-mers)) was 11.3. Turning to AAAACC [RNAcompete motif RNCMPT00153], in the data set with PABPC3 (Homo sapiens), the binding signal (z-score (mean of top ten 7-mers)) is 8.16. On to AUGGGGA [RNAcompete motif RNCMPT00150], for which the binding signal (z-score (mean of top ten 7-mers)) with ESRP2 (Homo sapiens) was 7.36. For the substance UACUUU [RNAcompete motif RNCMPT00010], the binding signal (z-score (mean of top ten 7-mers)) in data set [7] was 11.8. Consider ANAAUAA [RNAcompete motif RNCMPT00142], for which, in data set [8], the binding signal (z-score (mean of top ten 7-mers)) is 6.18. For GACAGA [RNAcompete motif RNCMPT00156], the binding signal (z-score (mean of top ten 7-mers)) with CNOT4 (Homo sapiens) is 19.

For UAAUUG [RNAcompete motif RNCMPT00001], in the data set with A1CF (Homo sapiens), the binding signal (z-score (mean of top ten 7-mers)) is 12.6. With AUAUAG [RNAcompete motif RNCMPT00152], the binding signal (z-score (mean of top ten 7-mers)) with RBMS1 (Homo sapiens) was 7.69. In the case of AGAAGA [RNAcompete motif RNCMPT00157], in the data set with PABPN1 (Homo sapiens), the binding signal (z-score (mean of top ten 7-mers)) is 11.4.

In the case of ACUAAG [RNAcompete motif RNCMPT00147], the binding signal (z-score (mean of top ten 7-mers)) in data set [9] was 11.6.

For the substance GNGUG [RNAcompete motif RNCMPT00146], in data set [10], the binding signal (z-score (mean of top ten 7-mers)) is 8.15. Take UUUUUU [RNAcompete motif RNCMPT00158]: in the data set with CPEB4 (Homo sapiens), the binding signal (z-score (mean of top ten 7-mers)) is 14.8.
